{"source": "patent US20180236028", "system": "Reelin of primary cortical neurons (endogenous, cellular and supernatant fractions)", "data": [{"substance": "MMP-9 (active; Calbiochem, PF140)", "values": [{"measurement": "Reelin processing in primary neurons, Western blot", "result": "application of MMP-9 to primary neurons led to a specific accumulation of the 180 kDa fragment in cells and MMP-9 inhibition for 24 hours led to a dramatic increase in full-length cellular Reelin and decrease in cellular 180 kDa Reelin"}]}]}
